Results reported in the supplement of paper PMC10598134.
± gives the standard deviation.

Experiment: collision cross section of modified peptide (TIMS, N2, iRT-aligned); higher = larger / more extended gas-phase ion
How it was run: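 Synthetic peptide pools (~100 fmol/µL in 2% acetonitrile/0.1% formic acid, iRT standard spiked 1:40) were separated on a 120-min nanoflow C18 gradient at 60 °C. They were analysed on a timsTOF Pro/HT (dda-PASEF, nitrogen, ~2.4 mbar) and identified with MaxQuant. 1/K0 was calibrated with three reference ions and aligned run-wise to the median iRT peptide deviation. Collision cross section came from the Mason-Schamp equation, averaging 1–3 technical replicates of the most abundant feature per charge state.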

[1] = charge state: 2, modification: Malonyl
[2] = charge state: 3, modification: Malonyl
[3] = charge state: 2, modification: Nitro (Y)
[4] = charge state: 3, modification: Nitro (Y)
[5] = charge state: 2, modification: Succinyl
[6] = charge state: 2, modification: Methyl (R)
[7] = charge state: 3, modification: Methyl (R)
[8] = charge state: 2, modification: Glutarylation
[9] = charge state: 2, modification: Methyl (K)
[10] = charge state: 3, modification: Methyl (K)
[11] = charge state: 2, modification: GlyGly (K)
[12] = charge state: 3, modification: GlyGly (K)
[13] = charge state: 2, modification: Formyl
[14] = charge state: 2, modification: Biotin

Sequence: GEVGAGAGPGAQAGPSAKR [_GEVGAGAGPGAQAGPSAK(Malonyl)R_]
- collision cross section [1]: 415.94 ± 0.58 Å²
- collision cross section [2]: 468.8 ± 1.8 Å²

Sequence: VSPASSVDSNIPSSQGYKK [_VSPASSVDSNIPSSQGYK(Malonyl)K_]
- collision cross section [1]: 465.75 ± 0.51 Å²
- collision cross section [2]: 526.18 ± 21 Å²

Sequence: THLAPYSDELR [_THLAPY(Nitro (Y))SDELR_]
- collision cross section [3]: 377.13 ± 2.5 Å²
- collision cross section [4]: 453.98 ± 1.8 Å²

Sequence: PSVGSQSNQAGQGKR [_PSVGSQSNQAGQGK(Acetyl (K))R_]
- collision cross section (charge state: 2, modification: Acetyl (K)): 409.31 ± 3.1 Å²
- collision cross section (charge state: 3, modification: Acetyl (K)): 465.77 ± 2.3 Å²

Sequence: LTEKELAEAASK [_LTEK(Succinyl)ELAEAASK_]
- collision cross section [5]: 389.23 ± 1.1 Å²
- collision cross section (charge state: 3, modification: Succinyl): 454.1 Å²

Sequence: LTEKELAEAASK [_LTEK(Butyryl)ELAEAASK_]
- collision cross section (charge state: 2, modification: Butyryl): 394.05 ± 1.5 Å²
- collision cross section (charge state: 3, modification: Butyryl): 455.88 Å²

Sequence: GRGYFEHR [_GR(Methyl (R))GYFEHR_]
- collision cross section [6]: 342.05 Å²
- collision cross section [7]: 410.57 ± 5.9 Å²

Sequence: VETTVTSLKTK [_VETTVTSLK(Gluratylation)TK_]
- collision cross section [8]: 392.12 ± 0.61 Å²

Sequence: ASNAAVKLAESK [_ASNAAVK(Malonyl)LAESK_]
- collision cross section [1]: 371.16 ± 0.62 Å²

Sequence: SLKLNTAEDAK [_SLK(hydroxyisobutyryl)LNTAEDAK_]
- collision cross section (charge state: 2, modification: hydroxyisobutyryl): 378.64 ± 0.28 Å²

Sequence: FLQEFYQDDELGKK [_FLQEFYQDDELGK(Methyl (K))K_]
- collision cross section [9]: 445.9 ± 2.4 Å²
- collision cross section [10]: 499.81 ± 3 Å²

Sequence: GERGFPGYPGPK [_GERGFPGYP(Hydroxyproline)GPK_]
- collision cross section (charge state: 3, modification: Hydroxyproline): 456.01 ± 1.2 Å²

Sequence: FLQEFYQDDELGKK [_FLQEFYQDDELGK(Crotonyl)K_]
- collision cross section (charge state: 2, modification: Crotonyl): 450.33 ± 0.0083 Å²

Sequence: LAEEENKAK [_LAEEENK(Succinyl)AK_]
- collision cross section [5]: 348.59 ± 0.23 Å²

Sequence: FIHQQPQSSSPVYGSSAK [_FIHQQPQSSSPVYGS(HexNAc (ST))SAK_]
- collision cross section (charge state: 3, modification: HexNAc (ST)): 528.58 ± 0.18 Å²

Sequence: IVFSGNLFQHQEDSKK [_IVFSGNLFQHQEDSK(GlyGly (K))K_]
- collision cross section [11]: 491.77 Å²
- collision cross section [12]: 544.77 ± 1.6 Å²

Sequence: LEQVEKELLR [_LEQVEK(Malonyl)ELLR_]
- collision cross section [1]: 382.93 ± 0.62 Å²

Sequence: IINEPTAAAIAYGLDKK [_IINEPTAAAIAYGLDK(Trimethyl (K))K_]
- collision cross section (charge state: 2, modification: Trimethyl (K)): 500.2 ± 1.5 Å²
- collision cross section (charge state: 3, modification: Trimethyl (K)): 559.85 ± 0.91 Å²

Sequence: SFDEVEGVFGRGGGR [_SFDEVEGVFGR(Methyl (R))GGGR_]
- collision cross section [6]: 429.58 ± 1.6 Å²
- collision cross section [7]: 513.29 ± 1.2 Å²

Sequence: SRGAIISQYYNR [_SR(Citrullination (R))GAIISQYYNR_]
- collision cross section (charge state: 2, modification: Citrullination (R)): 408.9 ± 1.3 Å²
- collision cross section (charge state: 3, modification: Citrullination (R)): 483.76 Å²

Sequence: SYGIPYIETSAK [_SY(Nitro (Y))GIPYIETSAK_]
- collision cross section [3]: 386.26 ± 0.17 Å²

Sequence: IGNSYFKEEK [_IGNSYFK(Methyl (K))EEK_]
- collision cross section [9]: 373.94 ± 0.87 Å²
- collision cross section [10]: 450.33 ± 4.8 Å²

Sequence: LEQVEKELLR [_LEQVEK(Formyl)ELLR_]
- collision cross section [13]: 382.29 ± 0.41 Å²

Sequence: DTPTSAGPNSFNKGK [_DTPTSAGPNSFNK(Gluratylation)GK_]
- collision cross section [8]: 415.83 ± 1.8 Å²
- collision cross section (charge state: 3, modification: Glutarylation): 444.87 ± 1.9 Å²

Sequence: AIEINPDSAQPYK [_AIEINPDSAQPY(Nitro (Y))K_]
- collision cross section [3]: 401.15 ± 0.18 Å²

Sequence: AAQASDLEKIHLDEK [_AAQASDLEK(Malonyl)IHLDEK_]
- collision cross section [1]: 460.56 ± 1.1 Å²
- collision cross section [2]: 500.48 Å²

Sequence: SGNLTEDDKHNNAK [_SGNLTEDDK(GlyGly (K))HNNAK_]
- collision cross section [11]: 432.48 ± 1.6 Å²
- collision cross section [12]: 495.64 ± 0.34 Å²

Sequence: GETASKLQSEISR [_GETASK(Formyl)LQSEISR_]
- collision cross section [13]: 382.6 ± 1.7 Å²

Sequence: GTISAPGKVVTAAAQAK [_GTISAPGK(Biotin)VVTAAAQAK_]
- collision cross section [14]: 458.66 ± 0.47 Å²
- collision cross section (charge state: 3, modification: Biotin): 550.8 ± 0.34 Å²

Sequence: ITGKNQVTATK [_ITGK(Dimethyl (K))NQVTATK_]
- collision cross section (charge state: 2, modification: Dimethyl (K)): 369.07 ± 1.1 Å²
- collision cross section (charge state: 3, modification: Dimethyl (K)): 427.9 Å²

Sequence: GPQNATDSYVHK [_GPQNATDSY(Nitro (Y))VHK_]
- collision cross section [3]: 386.3 ± 0.94 Å²
- collision cross section [4]: 449.51 ± 0.23 Å²

Sequence: SGFGKFER [_SGFGK(Biotin)FER_]
- collision cross section [14]: 352.97 Å²

Sequence: DLSTVEALQNLKNLK [_DLSTVEALQNLK(Formyl)NLK_]
- collision cross section [13]: 474.81 ± 0.7 Å²
